Reference: patent US20220290200A1, “GENETICALLY MODIFIED HOST CELLS PRODUCING GLYCOSYLATED CANNABINOIDS” (OCTARINE BIO IVS, priority 2019, published 2022)

Legend:
[1] = In vivo bioconversion of cannabinoid substrate to glycoside in E. coli expressing glycosyl transferases; type: cell-based
Method: The Sr76G1 expression plasmid (PL-55(Sr76G1_GA (SEQ ID NO:123,124)) was also included (resulting in E. coli strain EC-55) to test whether the absence of activity observed in vitro was also observed in vivo. Strains were subsequently incubated overnight in 5 mL of LB media supplemented with ampicillin in 10 mL pre-culture tubes at 37° C. Subsequently, cells were inoculated to a starting OD600 of 0.1 in 500 μL of LB media supplemented with ampicillin in a 96 deep-well plate and incubated at 30° C. for 6 hours. A cannabinoid substrate was then dissolved in ethanol and added to the culture media along with a suitable inducing agent (IPTG) in the following final concentrations:
Cannabinoid substrate: 250 μM
Cells were cultivated with the added ethanol, cannabinoid substrate and IPTG for a further 66 hours. Cannabinoid glycosides were extracted and analyzed by HPLC analysis as described above. The decrease in cannabinoid concentration and accumulation of cannabinoid glycosides were quantified and percent conversion calculated for each glycoside. As shown in table 51 below E. coli strains expressing glycosyl transferases could convert a range of cannabinoids into their corresponding glycosides.

[2] = In vitro glycosyl transferase performance, purified enzymes, % conversion of cannabinoids to cannabinoid glycosides; type: biochemical
Method: For in vitro studies of glycosyl transferase performance in glycosylating cannabinoids, purified Glycosyl transferases were prepared as follows:
5 mL of 2× concentrated LB medium+Ampicillin (50 μg/m L) was inoculated with E. coli XJb (DE3) strains expressing a glycosyl transferase of interest and incubated overnight at 30° C. with shaking. The following day, cell cultures were transferred into 500 mL of 2× concentrated LB medium+Ampicillin (50 μg/mL) and incubated overnight at 30° C. with shaking. The following day, the cell cultures were transferred to 1 L of 2× concentrated LB medium+Ampicillin (50 μg/mL)+3 mM arabinose+0.1 mM IPTG. Cells were incubated for 24 h at 20° C. with shaking. The following day, the cells were collected by centrifugation at 46500×g for 10 mins at 4° C. Cells were resuspended in 20 mL ice-cold GT buffer (50 mM Tris-HCl pH7.4+1 mM phenylmethanesulfonyl fluoride+1 cOmplete™, mini, EDTA-free Protease Inhibitor Cocktail tablet (Roche)). The resuspended material was transferred to a 50 mL falcon tube and kept at −80° C. for at least 15 mins. Falcon tubes were then thawed at room temperature, as the tubes were thawing the following reagents were added; 2.6 mM MgCl2, 1 mM CaCl2, 250 μL of a 1.4 mg/ml DNase solution (Sigma) dissolved in MilliQ water. Tubes were gently inverted to mix then were incubated for 5 mins at 37° C. Binding buffer was then added to the tubes (50 mM Tris-HCl pH7.4, 10 mM imidazole, 500 mM NaCl. 11.25 mL MilliQ water) and the pH adjusted to 7.4 with HCl. The mix was centrifuged at 15550×g for 15 mins at 4° C., the supernatant transferred to a fresh 50 mL falcon tubes and centrifuged again to remove any remaining cellular debris at 48400×g for 20 minutes at 4° C. While the enzyme prep was centrifuging, 3 mL of HIS-Select (available from Sigma P6611) column material was added to a fresh 50 mL tube and washed by adding MilliQ water up to 50 mL, centrifuging at 2000×g for 2 mins and discarding the supernatant. This washing step was repeated. Finally, MilliQ water was added to the HIS-Select material to an approximate 50% volume. Collected supernatant from the centrifuged enzyme preparation was transferred to the tube containing the HIS-Select material through a Miracloth (available from Merck Millipore), and then incubated at 4° C. with gently shaking by inversion for 2 h. After 2 h the mix was centrifuged at 2000×g for 4 minutes at 4° C. and the supernatant discarded. The remaining HIS-Select material was washed twice with 1× binding buffer (50 mM Tris-HCl, 0.5M NaCl, 10 mM Imidazole, pH 7.4) with centrifugation at 2000×g for 4 minutes at 4° C. The HIS-Select material was resuspended in 5 mL 1× binding buffer and transferred to a Poly-Prep®Chromatography Column (available from BioRad, 7311550). The HIS-Select material was kept at 4° C. and washed twice with 1× binding buffer by filling up the column and allowing it to drip through. Finally, purified Glycosyl transferases were eluted from the HIS-Select material by adding 7.5 mL of elution buffer (50 mM Tris-HCl, 500 mM Imidazole, pH7.4) and collecting the flow through. Enzymes were used immediately in in vitro enzyme assays or stored at −20° C. in 50% glycerol until needed.
In vitro conversion of various cannabinoids to cannabinoid glycosides was carried out according to table 21. Alkaline phosphatase was provided by New England Biolabs (M0371S). Cannabinoids were dissolved in methanol. The UDP-sugar (e.g. UDP-glucose) was provided by a commercial supplier (e.g. Sigma) or produced by in vitro enzymatic conversion from a commercially available UDP-sugar as shown in Example 21.
The reaction mixture was scaled up or down as required. The reaction mixture was incubated without shaking at 30° C. for 24 hours. Extraction and analysis were performed as described above for this example. […]

[3] = In vitro conversion of CBD with combined glycosyl transferases (sugar-sugar linkages); type: biochemical
Source text: The glycosyl transferases described herein can broadly be grouped into either glycosyl transferases active on the cannabinoid aglycones or glycosyl transferases active on cannabinoid glycosides. The latter group, instead of attaching a sugar moiety onto a free hydroxy group on the cannabinoid molecule, attaches a sugar moiety onto the sugar group of the cannabinoid glycoside. In Example 13 a range of glycosyl transferases were discovered that were active only on cannabinoid aglycones (e.g. PL-159(Pt88G_GA) (SEQ ID NO: 147, 148)) as well a range of glycosyl transferases which were active on both cannabinoid aglycones and cannabinoid glycosides. […] Two of these enzymes (PL-55(Sr76G1_GA) (SEQ ID NO: 123, 124) and PL-32(OsEUGT11_GA) (SEQ ID NO: 115, 116)) are described in prior art and are well known to catalyze a range of sugar on sugar reactions and were recently described as being able to perform sugar on sugar reactions on cannabinoid glycosides. […] In vitro assays were performed and analyzed as described previously. […] By comparing the LC-MS/QTOF retention time, measured mass and fragmentation pattern as well as the c Log P it could be elucidated that Sr76G1, OsEUGT11 and Si94D were catalysing sugar on sugar reactions with different linkages. […]

B1: Sr76G1: glycosyl transferase isolated from S. rebaudiana, SEQ ID NO: 123, 124, described in prior art (protein)
chain: MDQMAKIDEKKPHVVFIPFPAQSHIKCMLKLARILHQKGLYITFINTDTNHERLVASGGTQWLENAPGFWFKTVPDGFGSAKDDGVKPTDALRELMDYLKTNFFDLFLDLVLKLEVPATCIICDGCMTFANTIRAAEKLNIPVILFWTMAACGFMAFYQAKVLKEKEIVPVKDETYLTNGYLDMEIDWIPGMKRIRLRDLPEFILATKQNYFAFEFLFETAQLADKVSHMIIHTFEELEASLVSEIKSIFPNVYTIGPLQLLLNKITQKETNNDSYSLWKEEPECVEWLNSKEPNSVVYVNFGSLAVMSLQDLVEFGWGLVNSNHYFLWIIRANLIDGKPAVMPQELKEAMNEKGFVGSWCSQEEVLNHPAVGGFLTHCGWGSIIESLSAGVPMLGWPSIGDQRANCRQMCKEWEVGMEIGKNVKRDEVEKLVRMLMEGLEGERMRKKALEWKKSATLATCCNGSSSLDVEKLANEIKKLSRN
[1]; E. coli strain EC-55
  glycosyl transferase activity in vivo: lack of activity
[2]; any cannabinoid aglycone
  glycosyltransferase activity using cannabinoid aglycones as substrate: no glycosyltransferase activity was detected

B2: Cs73Y: glycosyl transferase, SEQ ID NO: 157 (207 for the yeast codon-optimized gene) (protein)
chain: MGSEGRQLHIFMFPFMAHGHMIPIVDMAKLFASRGIKITIVTTPLNSISISKSLHNCSPNSLIQLLILKFPAAEAGLPDGCENADSIPSMDLLPKFFEAVSLLQPPFEEALHNNRPDCLISDMFFPWTNDVADRVGIPRLIFHGTSCFSLCSSEFMRLHKPYQHVSSDTEPFTIPYLPGDIKLTKMKLPIFVRENSENEFSKFITKVKESESFCYGVVVNSFYELEAEYVDCYKDVLGRKTWTIGPLSLTNTKTQEITLRGRESAIDEHECLKWLDSQKPNSVVYVCFGSLAKFNSAQLKEIAIGLEASGKKFIWVVRKGKGEEEEEEQNWLPEGYEERMEGTGLIIRGWAPQVLILDHPSVGGFVTHCGWNSTLEGVAAGVPMVTWPVGAEQFYNEKLVTEVLKTGVGVGVQKWAPGVGDFIESEAVEKAIRRIMEKEGEEMRNRAIELGKKAKWAVGEEGSSYSNLDALIEELKSLAF
[1]; E. coli, 250 μM CBN fed, to OB23
  conversion of fed cannabinoid to cannabinoid glycoside in vivo: 100%

B3: Si94D: glycosyl transferase active on cannabinoid glycosides, SEQ ID NO: 145, 146 (protein)
chain: MDTRKRSIRILMFPWLAHGHISAFLELAKSLAKRNFVIYICSSQVNLNSISKNMSSKDSISVKLVELHIPTTILPPPYHTTNGLPPHLMSTLKRALDSARPAFSTLLQTLKPDLVLYDFLQSWASEEAESQNIPAMVFLSTGAAAISFIMYHWFETRPEEYPFPAIYFREHEYDNFCRFKSSDSGTSDQLRVSDCVKRSHDLVLIKTFRELEGQYVDFLSDLTRKRFVPVGPLVQEVGCDMENEGNDIIEWLDGKDRRSTVFSSFGSEYFLSANEIEEIAYGLELSGLNFIWVVRFPHGDEKIKIEEKLPEGFLERVEGRGLVVEGWAQQRRILSHPSVGGFLSHCGWSSVMEGVYSGVPIIAVPMHLDQPFNARLVEAVGFGEEVVRSRQGNLDRGEVARVVKKLVMGKSGEGLRRRVEELSEKMREKGEEEIDSLVEELVTVVRRRERSNLKSENSMKKLNVMMMENREGMLSENA
[3]; combined with Pt88G, CBD and UDP-glucose as substrates
  efficiency of 1-6 glucose-glucose linkage (gentiobioside) formation: 100%

B4: PL-159(Pt88G_GA) (protein)
chain: MEDTIVLYPSPGRGHLFSMVELGKQILEHHPSISITIIISAMPTESISIDDPYFSTLCNTNPSITLIHLPQVSLPPNTSFSPLDFVASFFELPELNNTNLHQTLLNLSKSSNIKAFIIDFFCSAAFEFVSSRHNIPIYFFYTTCASGLSMFLHLPILDKIITKSLKDLDIIIDLPGIPKIPSKELPPAISDRSHRVYQYLVDTAKLMIKSAGLIINTFELLERKALQAIQEGKCGAPDEPVPPLFCVGPLLTTSESKSEHECLTWLDSQPTRSVLFLCFGSMGVFNSRQLRETAIGLEKSGVRFLWVVRPPLADSQTQAGRSSTPNEPCLDLLLPEGFLERTKDRGFLVNSWAPQVEILNHGSVGGFVTHCGWNSVLEALCAGVPMVAWPLYAEQRMNRIFLVEEMKVALAFREAGDDHFVNAAELEERVIELMNSKKGEAVRERVLKLREDAVVAKSDGGSSCIAMAKLVDCFKKG
[3]; substrate CBD, in vitro
  amount of CBD converted to OB1 (CBD-1′-O-β-D-glucoside) expressed as a percentage: 97.5%
[2]; glycosyl transferase in vitro, Table 24
  % conversion of CBD to OB1 (CBD-1′-O-β-D-glucoside): 97.4%
[2]; glycosyl transferase in vitro, Table 25
  % conversion of CBD to OB13 (CBD-1′-O-α-L- rhamnoside): 2.0%
[2]; glycosyl transferase in vitro, Table 26
  % conversion of CBD to OB9 (CBD-1′-O-β-D-xyloside): 12.4%
[2]; glycosyl transferase in vitro, Table 33
  % conversion of CBDV to OB24 (CBDV-1′-O-β-D-glucoside): 89.2%
[2]; glycosyl transferase in vitro, Table 37
  % conversion of CBDA to OB31 (CBDA-1′-O-β-D-glucoside): 12.0%
[2]; substrate CBG, product OB32, glycosyl transferase in vitro
  % conversion, CBG to OB32 (CBG-1′-O-β-D-glucoside): 51.9%
